The text below walks through data of paper PMC6009666, “DNA-mediated dimerization on a compact sequence signature controls enhancer engagement and regulation by FOXA1”.

Data set [1] concerns the target T1, FOXA1 DBD (Homo sapiens, UniProt P55317 158-272).
T1 sequence: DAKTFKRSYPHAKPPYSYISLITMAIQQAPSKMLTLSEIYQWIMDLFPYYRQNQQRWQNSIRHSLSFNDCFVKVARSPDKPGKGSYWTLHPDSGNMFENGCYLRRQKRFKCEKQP
Briefly: EMSA. As to conditions: monomer binding not affected; EMSA: 20 mM Tris-HCl pH 8.0, 100 mM KCl, 50 uM ZnCl2, 0.1 mg/ml BSA, 10% glycerol, 0.1% Igepal CA630, 2 mM beta-mercaptoethanol, 1 h at 4 C; 1-100 nM dsDNA; 12%. On the technique in general: A gel shift assay detects complexes by their altered migration in electrophoresis.

The target of data set [2] is T1, FOXA1 DBD. The experiment in a line: EMSA; 1 nM DNA; monomer; n=3; EMSA: 20 mM Tris-HCl pH 8.0, 100 mM KCl, 50 uM ZnCl2, 0.1 mg/ml BSA, 10% glycerol, 0.1% Igepal CA630, 2 mM beta-mercaptoethanol, 1 h at 4 C; 1-100 nM dsDNA; 12% native PAGE (6% for full length). As to conditions: protein: recombinant; tags: His-tag implied (pNic28-Bsa4, Ni-NTA); label: 5' Cy5 forward strand.

Take rs2941742 minor allele: the binding signal (fold reduction of omega vs major allele) in data set [1] amounted to 20.

B1: FOXA1 monomer element (dsDNA)
DNA 1: CCGCCGCCGTGTTTACTTTGCCGCCGCC
DNA 2: GGCGGCGGCAAAGTAAACACGGCGGCGG
Consider B1, for which, in data set [2], the Kd – broadly, the equilibrium constant for the complex coming apart – came to 2.4 ± 1.06 nM.
